Percent of total αS partitioned into the droplets data for one substance are collected here from article PMC10473755.

The assay addresses prion-like C-terminal domain of TDP-43 (TDP-43PrLD), in droplets with poly-A RNA (UniProt Q13148). Nature of the assay: co-sedimentation.

prion-like C-terminal domain of TDP-43 (TDP-43PrLD), in droplets with poly-A RNA, sequence (Q13148 267-414): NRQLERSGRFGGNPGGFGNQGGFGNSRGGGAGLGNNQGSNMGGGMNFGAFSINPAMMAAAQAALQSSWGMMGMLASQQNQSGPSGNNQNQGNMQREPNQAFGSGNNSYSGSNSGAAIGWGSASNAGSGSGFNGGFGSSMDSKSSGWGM

The substance “α-synuclein, wild-type monomers (from UniProt P37840 1-140) (natural protein)” returned a percent of total αS partitioned into the droplets of 8%.
